This assay addresses Ixodes ricinus contact phase inhibitor (Ir-CPI) (Ixodes ricinus) (UniProt Q9GP15). Nature of the assay: SPR. A general note: Surface plasmon resonance follows binding to a sensor surface in real time, without labels.

Sequence of Ixodes ricinus contact phase inhibitor (Ir-CPI) (Ixodes ricinus) (Q9GP15 20-86): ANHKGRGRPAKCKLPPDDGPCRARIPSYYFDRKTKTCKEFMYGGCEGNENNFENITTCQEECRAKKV

In turn, plasmin (enzyme) showed a Ka of 3.3e+08 M⁻¹; a ka1 (two-state model, formation of AB) of 900000 M⁻¹ s⁻¹; a ka2 (two-state model, forward conformation change) of 0.00582 s⁻¹; a kd1 (two-state model, dissociation of AB) of 0.00535 s⁻¹. Besides, the kd2 (two-state model, backward conformation change) was found to be 0.00614 s⁻¹.

For the origin of these results see paper PMC2768864.
